The text below walks through data of patent US20200199244A1 (published 2020).

B1: BMS3h-131-2 (other)
VL: DIQMTQSPSSLSASVGDRVTITCRADSSILWALAWYQQKPGKAPKLLIESSSGLQSGVPSRFSGSGSGTDFTLTISSLQPEDFATYYCVQNAVWPGTFGQGTKVEIKR
notes: domain antibody (dAb): single human V kappa domain
B2: BMS3h-193-25 (other)
VL: DIQMTQSPSSLSASVGDRVTITCRASQTIERRLNWYQQKPGKAPRLLIYLATRLQSGVPSRFSGSGSGTDFTLTISSLQPEDFATYYCHQYESPPLTFGQGTKVEIKR
notes: as for B1
B3: BMS3h-56-7 (other)
VH: EVQLLESGGGLVQPGGSLRLSCAASGFTFRDYEMWWVRQAPGKGLERVSAINPQGTRTYYADSVKGRFTISRDNSKNTLYLQMNSLRAEDTSVYHCAKPPFIFGDWGPGTLVTVSS
notes: domain antibody (dAb): single human VH domain
B4: BMS3h-56-9 (other)
VH: EVQLLESGGGLVQPGGSLRLSCAASGFTFRDYEMWWVRQAPGKGLERVSAINPQGTRTYYADSVMGRFTISRDNSKNTLYLQMNSLRAEDTAVYYCAKLPFMFDDRGQGTLVTVSS
notes: as for B3
B5: BMS3h-43-1 (other)
VH: EVQLLESGGGLVQPGGSLRLSCTASGFTFNMYEMSWVRQAPGKGLEWVSGISRRGFTTYYADSVKGRFTISRDNSKNTLYLQMNSLRAEDTAVYYCAKEPITYDLRYARFDYSGQGTLVTVSS
notes: as for B3
B6: BMS3h-43-3 (other)
VH: EVQLLESGGGLVQPGGSLRLSCTASGFTFNMYEMSWVRQAPGKGLEWVSGISRRGFTTYYADSVKGRFTISRDNFKNTLYLQMNSLRAEDTAVYYCAKEPITYDMRYARFDYGGQGTLVTVSS
notes: as for B3
B7: BMS3h-37-2 (other)
VH: EVQLLESGGGLVQPGGSLRLSCAASGFTFEWYEMQWVRRAPGKGLEWVSAISGDGYRTYYADSVKGRFTISRDNSKNTLYLQMNSLRAEDTAVYYCAKELGYFDYWGRGTLVTVSS
notes: as for B3
B8: BMS3h-37-9 (other)
VH: EVQLLESGGGLVQPGGSLRLSCVASGFTFEWYEMQWVRQAPGNGLEWISAISGDGYRTYYADSVKGRFTISRDNSKNTLYLQMNSLRAEDTAVYYCAKELGYFDYWGRGTLVTVSS
notes: as for B3
B9: BMS3h-37-5 (other)
VH: EVQLLESGGGLVQPGGSLRLSCAASGFTFEWYEMQWVRQAPGKGLEWISAISGDGYRTYYADSVKGRFTISRDNSKNTLYLQMNSLRAEDTAVYYCAKELGYFDYRVQGTLVTVSS
notes: as for B3
B10: BMS3h-198-1 (other)
VH: EVQLLESGGGLVQPGGSLRLSCAASGSTIAGYEMWWVRQAPGKGLERVSAISGSGGSTYYADSVKGRFTISRDDSKNTLYLQMNSLRAEDTAVYYCARDPYSFDYWGQGTLVTVSS
notes: as for B3
B11: BMS3h-38-3 (other)
VH: EVQLLASGGGLVQPGGSLRLSCAASGFTFEEEEMIWVRQAPGKGLEWISAISGSGGSTYYADSVKGRFTISRDNSKNTLYLQMNSLRAEDTAVYYCGKEPFRFDYWGQGTLVTVSS
notes: as for B3
B12: BMS3h-38-2 (other)
VH: EVQLLASGGGLVQPGGSLRLSCAASGFTFEEEEMIWVRQAPGKGLEWVSAISGSGGSTYYADSVKGRFTISRDNSKNTLYLQMNSLRAEDTAVYYCGKEPFRYDYWGQGTLVTVSS
notes: as for B3
B13: BMS3h-38-1 (other)
VH: EVQLLGSGGGLVQPGGSLRLSCAASGFTFEEEEMIWVRQAPGKGLEWVSAISGSGGSTYYADSVKGRFTISRDNSKNTLYLQMNSLRAEDTAVYYCSKEPFRFDYWGQGTLVTVSS
notes: as for B3
B14: BMS3h-41-1 (other)
VH: EVQLLESGEGLVQPGGSLRLSCAASGFTFTEHEMIWVRQAPGKGLEWVSSISGNGANTYYADSVKGRFTISRDNSKNTLYLQMNSLRPEDTAVYYCAKEPLRFDYWGQGTLVTVSS
notes: as for B3
B15: BMS3h-202-5 (other)
VH: EVQLLESGGGLVQPGGSLRLSCAASGFTFPTAEMLWVRQAPGKGLEWVSSISASGGSTYYADSVKGRFTISRDNSKNTLYLQMNSLRAEDTAVYYCAKEPVSYVATFDYWGQGTLVTVSS
notes: as for B3
B16: BMS3h-198-14 (other)
VH: EVQLLESGGGLVQPGGSLRLSCAASGFTFAGYEMWWFRQAPGKGLERVSAISGSGGSTYYADSVKGRFTISRDDTKNTLYLQMNSLRAEDTAVYYCAKDPYSFDYWRQGTLVTVSS
notes: dAb, single VH
B17: BMS3h-198-19 (other)
VH: EVQLLESGGGLVQPGGSLRLSCAASGFTFAGYELWWVRQAPGKGLERVSAISGSGGSTYYADSVKGRFTISRDDSKNTLYLQMNSLRAEDTAVYYCARDPYSFDYRGQGTLVTVSS
notes: dAb, single VH
B18: BMS3h-198-37 (other)
VH: EVQLLESGGGLVQPGGSLRLSCAASGFTFAGYELWWVRQAPGKGLERVSAISGSGGSTYYADSVKGRFTISRDDSKNTLYLQMNSLRAEDTAVYYCAKDPYSFDYRGQGTLVTVSS
notes: dAb, single VH
B19: BMS3h-198-22 (other)
VH: EVQLLESGGGLVQPGGSLRLSCAASGFTFAGYEMWWVRQAPGKGLERVSAISGSGGSTYYADSVKGRFTISRDDSKNTLYLQMNSLRAEDTAVYYCAKEPYSYDYWGHGTLVTVSS
notes: dAb, single VH
B20: BMS3h-198-38 (other)
VH: EVQLLESGGGLVQPGGSLRLSCAASGFTFAGYELWWVRQAPGKGLERVSAISGSGGSTYYADSVKGRFTISRDDSKNTLYLQMNSLRAEDTAVYYCARDPYSFDYWGQGTLVTVSS
notes: dAb, single VH

T1 sequence (P25942 21-193 limits assumed): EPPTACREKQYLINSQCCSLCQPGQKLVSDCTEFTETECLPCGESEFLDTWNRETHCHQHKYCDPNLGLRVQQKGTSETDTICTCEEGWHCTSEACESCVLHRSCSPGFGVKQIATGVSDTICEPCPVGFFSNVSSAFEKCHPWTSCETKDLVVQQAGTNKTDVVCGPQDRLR

The first test concerns the target T1, biotinylated human CD40 (BMS) (human, UniProt P25942 21-193, limits assumed, biotinylated (sites not given)).
T1 construct: Ligand immobilised on the streptavidin BIAcore chip
Nature of the test: BIAcore SPR, immobilised biotinylated human CD40, 1:1 fit.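 Note: binding kinetics of dAbs flowed over the CD40 surface at 25 °C in HBS-EP, 300 s dissociation, signal corrected by reference cell and buffer blank, global Langmuir fit.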 Background: In SPR one partner is held on a chip, and binding of the other changes the refractive index at the surface.
In general, Kd refers to the constant that tells how readily two partners part at equilibrium. Higher therefore signals a looser complex. Usually koff stands for a measure of how fast the partners let go of each other. As a reminder, the kon is the rate constant with which the complex forms. B1 came in with an equilibrium dissociation constant (Kd) of 21 nM, a koff of 0.0017 s⁻¹ and a kon of 79000 M⁻¹ s⁻¹.

B2 displayed a Kd of 81 nM, a koff of 0.037 s⁻¹ and a kon of 460000 M⁻¹ s⁻¹.

The molecule B3 registered a Kd of 3.5 nM, a koff of 0.00047 s⁻¹ and a kon of 130000 M⁻¹ s⁻¹.

With B4, the Kd was 2.6 nM, the koff turned out to be 0.00039 s⁻¹ and the kon came out at 150000 M⁻¹ s⁻¹.

The molecule B5 registered a Kd of 140 nM, a koff of 0.00063 s⁻¹ and a kon of 4400 M⁻¹ s⁻¹.

Turning to B6, binding was characterised by a dissociation constant (Kd) of 19 nM, the koff worked out at 0.00059 s⁻¹ and the kon came to 31000 M⁻¹ s⁻¹.

With B7, the Kd is 4 nM, the off-rate constant (koff) came to 0.00041 s⁻¹ and the kon worked out at 100000 M⁻¹ s⁻¹.

In the case of B8, the affinity, expressed as Kd, was 12 nM; the koff was determined as 0.00018 s⁻¹; the kon was determined as 15000 M⁻¹ s⁻¹.

Regarding B9, binding was put at a Kd of 5.5 nM, the koff was determined as 0.00022 s⁻¹ and the on-rate (kon) was found to be 39000 M⁻¹ s⁻¹.

As to B10, the Kd amounted to 13 nM, the dissociation rate constant (koff) is 0.00018 s⁻¹ and the kon was 15000 M⁻¹ s⁻¹.

The molecule B11 registered a dissociation constant (Kd) of 5.5 nM, a koff of 0.00041 s⁻¹ and a kon of 75000 M⁻¹ s⁻¹.

Turning to B12, the Kd stood at 12 nM, the koff worked out at 0.00075 s⁻¹ and the kon was found to be 61000 M⁻¹ s⁻¹.

The molecule B13 showed a Kd of 33 nM, a koff of 0.0011 s⁻¹ and a kon of 32000 M⁻¹ s⁻¹.

B14 returned a Kd of 11 nM, a koff of 0.00056 s⁻¹ and a kon of 51000 M⁻¹ s⁻¹.

With B15, binding was put at a Kd of 300 nM, the koff stood at 0.0013 s⁻¹ and the kon stood at 4400 M⁻¹ s⁻¹.

The target of the next test is T2, human CD40 (BMS, CY24FEB06-01) (human, UniProt P25942 21-193).
T2 construct: Soluble reagent of the bead and ELISA RBA; It is detected with an anti-human IgG (Fc) mAb, so it may be a CD40-Ig fusion
T2 sequence (P25942 21-193 limits assumed): as above
Kind of test: ELISA RBA, competition with IZ-CD40L.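 Note: Neutravidin-coated 384-well plate, dAb–human CD40 complex bound for 2 h at room temperature, absorbance read at 450 nm after HCl stop.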
Procedure: Clear walled High Bind, 384-well plates (Corning, UK) were coated with 25 μl of 1 μg/ml Neutravidin in 0.2 M carbonate-bicarbonate buffer, pH 9.4 overnight at 4° C. The following day, assay plates were washed with 0.1% (v/v) Tween PBS buffer, blocked with 1% (w/v) BSA in PBS for 1 hour at room temperature and washed again. […] Following washing of the assay plate, the dAb:human CD40 complex was incubated in the assay plate at room temperature for 2 hours with gentle agitation. […] Absorbance signal was measured using a SpectraMax® M5e plate reader (Molecular Devices) at 450 nm following neutralization with 1M HCl solution.
The term EC50 denotes the concentration giving half of the maximal effect. Take B16: the EC50 was 9 nM.

As for B17, a half-maximal response (EC50) required 7.9 nM.

B18 came in with a concentration giving a half-maximal response (EC50) of 15.1 nM.

For B19, it took 10 nM to reach a half-maximal effect (EC50).

For the molecule B20, the midpoint of the response, the EC50, lay at 7.2 nM.
